According to publication PMC4041439 (Nucleic Acids Research, 2014):

Molecular target: T1, Mms4 (S. cerevisiae, UniProt P38257 1-691)
T1 sequence (looked up): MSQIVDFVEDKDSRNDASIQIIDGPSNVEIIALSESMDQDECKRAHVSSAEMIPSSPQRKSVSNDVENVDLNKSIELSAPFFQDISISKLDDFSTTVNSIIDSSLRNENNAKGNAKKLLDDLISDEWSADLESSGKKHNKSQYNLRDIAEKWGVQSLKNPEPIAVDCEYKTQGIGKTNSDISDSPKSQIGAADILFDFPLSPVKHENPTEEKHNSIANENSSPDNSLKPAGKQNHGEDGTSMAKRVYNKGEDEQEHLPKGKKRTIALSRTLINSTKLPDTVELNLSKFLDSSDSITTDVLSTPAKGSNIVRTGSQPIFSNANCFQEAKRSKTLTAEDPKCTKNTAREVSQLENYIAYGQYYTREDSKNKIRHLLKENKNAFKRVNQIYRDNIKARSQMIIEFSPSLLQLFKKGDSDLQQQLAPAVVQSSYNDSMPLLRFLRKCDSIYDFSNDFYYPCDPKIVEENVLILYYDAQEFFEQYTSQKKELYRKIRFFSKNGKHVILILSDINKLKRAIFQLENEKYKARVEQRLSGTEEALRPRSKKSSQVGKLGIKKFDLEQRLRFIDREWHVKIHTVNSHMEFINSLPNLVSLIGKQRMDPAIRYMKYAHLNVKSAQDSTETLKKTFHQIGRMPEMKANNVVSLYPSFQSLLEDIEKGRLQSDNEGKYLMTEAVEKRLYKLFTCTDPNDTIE
Test: cross-linking

B1: Mus81 (enzyme, S. cerevisiae, UniProt Q04149 1-632, looked up)
chain: MELSSNLKDLYIEWLQELVDGLTPKQEQLKIAYEKAKRNLQNAEGSFYYPTDLKKVKGIGNTIIKRLDTKLRNYCKIHHISPVEAPSLTQTSSTRPPKRTTTALRSIVNSCENDKNEAPEEKGTKKRKTRKYIPKKRSGGYAILLSLLELNAIPRGVSKEQIIEVAGKYSDHCMTPNFSTKEFYGAWSSIAALKKHSLVLEEGRPKRYSLTEEGVELTKSLKTADGISFPKENEEPNEYSVTRNESSEFTANLTDLRGEYGKEEEPCDINNTSFMLDITFQDLSTPQRLQNNVFKNDRLNSQTNISSHKLEEVSDDQTVPDSALKAKSTIKRRRYNGVSYELWCSGDFEVFPIIDHREIKSQSDREFFSRAFERKGMKSEIRQLALGDIIWVAKNKNTGLQCVLNTIVERKRLDDLALSIRDNRFMEQKNRLEKSGCEHKYYLIEETMSGNIGNMNEALKTALWVILVYYKFSMIRTCNSDETVEKIHALHTVISHHYSQKDLIVIFPSDLKSKDDYKKVLLQFRREFERKGGIECCHNLECFQELMGKGDLKTVGELTIHVLMLVKGISLEKAVAIQEIFPTLNKILMAYKTCSSEEEAKLLMFNVLGDAPGAKKITKSLSEKIYDAFGKL
  binding result: binds
